Measurements reported in patent publication US20100143440A1, “UL97 INHIBITORS FOR TREATMENT OF PROLIFERATIVE DISORDERS” (The UAB Research Foundation, priority 2007, published 2010).
Read-outs that look alike come from different tables or passages of the source.

Tests used:
GS strain of HHV-6A = test: Efficacy against HHV-6A in HSB-2 cells with reduced serum; format: cell-based; details: for EC50: HSB2, HHV-6A in HSB-2 cells, read-out: EC50
Description: The activity of MBV was evaluated against the GS strain of HHV-6A in HSB-2 cells with reduced serum to slow the growth of lymphocytes.

[1] = biological target: RB tumor suppressor (retinoblastoma protein), endogenous in infected human foreskin fibroblast (HFF) cells (UniProt P06400)
[2] = biological target: T1, RB tumor suppressor (retinoblastoma protein), endogenous in infected human foreskin fibroblast (HFF) cells, P06400
T1 chain: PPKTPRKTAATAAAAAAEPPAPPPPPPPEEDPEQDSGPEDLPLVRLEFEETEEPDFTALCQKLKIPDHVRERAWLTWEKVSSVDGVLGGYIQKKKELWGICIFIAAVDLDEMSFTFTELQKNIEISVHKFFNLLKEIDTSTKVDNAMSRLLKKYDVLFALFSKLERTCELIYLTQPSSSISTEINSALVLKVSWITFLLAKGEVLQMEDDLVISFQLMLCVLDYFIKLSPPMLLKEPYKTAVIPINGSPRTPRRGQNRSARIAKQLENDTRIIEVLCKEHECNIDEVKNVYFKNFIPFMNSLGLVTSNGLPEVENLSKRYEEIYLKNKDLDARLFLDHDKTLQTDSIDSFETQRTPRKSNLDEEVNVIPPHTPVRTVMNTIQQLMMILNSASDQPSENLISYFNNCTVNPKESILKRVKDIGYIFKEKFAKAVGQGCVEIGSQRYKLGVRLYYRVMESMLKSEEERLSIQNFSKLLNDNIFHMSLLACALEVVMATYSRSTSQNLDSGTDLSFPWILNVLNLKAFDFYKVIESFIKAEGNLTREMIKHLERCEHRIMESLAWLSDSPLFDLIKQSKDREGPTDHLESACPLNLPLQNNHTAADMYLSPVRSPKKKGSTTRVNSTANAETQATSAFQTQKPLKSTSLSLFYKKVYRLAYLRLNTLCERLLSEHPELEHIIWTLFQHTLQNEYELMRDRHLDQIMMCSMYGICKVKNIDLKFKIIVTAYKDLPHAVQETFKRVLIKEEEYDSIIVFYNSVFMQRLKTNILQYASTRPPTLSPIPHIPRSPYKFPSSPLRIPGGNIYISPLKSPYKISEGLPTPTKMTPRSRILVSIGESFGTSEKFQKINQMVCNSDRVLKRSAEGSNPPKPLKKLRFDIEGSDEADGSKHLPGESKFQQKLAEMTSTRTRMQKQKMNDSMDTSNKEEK

[3] = biological target: T2, epitope tagged (V5) UL104 fusion protein (negative control) (UniProt P16735 1-697); test: pull-down of recombinant Rb by V5-immunoprecipitated protein on Protein A sepharose beads, immunoblot for Rb
T2 construct: Negative control in the Rb pull-down; also called pUL104
T2 sequence: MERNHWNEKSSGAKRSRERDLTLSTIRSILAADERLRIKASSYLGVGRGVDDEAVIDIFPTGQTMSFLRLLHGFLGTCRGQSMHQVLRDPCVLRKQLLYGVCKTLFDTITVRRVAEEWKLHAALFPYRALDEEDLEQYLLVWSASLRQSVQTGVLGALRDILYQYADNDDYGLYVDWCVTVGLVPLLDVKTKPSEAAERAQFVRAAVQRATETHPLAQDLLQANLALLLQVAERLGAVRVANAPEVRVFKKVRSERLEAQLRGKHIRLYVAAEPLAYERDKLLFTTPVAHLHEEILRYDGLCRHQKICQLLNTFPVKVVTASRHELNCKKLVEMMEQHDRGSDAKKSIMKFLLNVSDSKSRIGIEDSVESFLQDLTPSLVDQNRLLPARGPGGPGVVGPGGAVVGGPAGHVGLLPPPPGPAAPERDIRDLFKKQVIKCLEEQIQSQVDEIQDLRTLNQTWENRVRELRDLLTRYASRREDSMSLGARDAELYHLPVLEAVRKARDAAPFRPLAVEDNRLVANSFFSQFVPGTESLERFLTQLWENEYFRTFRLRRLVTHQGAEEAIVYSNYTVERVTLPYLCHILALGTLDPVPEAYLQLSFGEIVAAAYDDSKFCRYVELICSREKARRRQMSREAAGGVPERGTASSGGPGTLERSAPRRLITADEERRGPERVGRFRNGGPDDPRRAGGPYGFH

[4] = biological target: T3, epitope tagged (V5) UL89 fusion protein (negative control) (UniProt P16732 1-674); test: as above
T3 construct: Negative control in the Rb pull-down; also called pUL89
T3 sequence: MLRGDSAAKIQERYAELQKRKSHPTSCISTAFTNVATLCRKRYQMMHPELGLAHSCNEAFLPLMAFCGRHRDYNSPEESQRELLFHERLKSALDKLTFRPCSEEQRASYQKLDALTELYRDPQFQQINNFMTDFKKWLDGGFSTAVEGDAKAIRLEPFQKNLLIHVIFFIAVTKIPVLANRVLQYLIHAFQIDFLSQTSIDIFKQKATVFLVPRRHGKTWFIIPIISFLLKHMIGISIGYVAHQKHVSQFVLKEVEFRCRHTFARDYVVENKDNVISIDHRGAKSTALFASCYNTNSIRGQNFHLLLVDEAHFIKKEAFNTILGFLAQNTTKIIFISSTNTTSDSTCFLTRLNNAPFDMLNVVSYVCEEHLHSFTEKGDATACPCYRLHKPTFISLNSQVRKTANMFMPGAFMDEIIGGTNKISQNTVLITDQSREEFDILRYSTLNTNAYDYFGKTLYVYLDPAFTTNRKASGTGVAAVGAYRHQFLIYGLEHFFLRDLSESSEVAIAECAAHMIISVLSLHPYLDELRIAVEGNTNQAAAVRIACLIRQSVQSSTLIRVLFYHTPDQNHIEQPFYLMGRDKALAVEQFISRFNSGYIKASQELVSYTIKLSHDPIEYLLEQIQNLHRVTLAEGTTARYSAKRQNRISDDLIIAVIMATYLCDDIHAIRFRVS

## Nc1ccn(C[C@@H](CO)OCP(=O)(O)O)c(=O)n1 [cidofovir]
GS strain of HHV-6A; GS strain of HHV-6A, HSB-2 cells, reduced serum
  EC50 values under conditions of reduced serum: unaffected
GS strain of HHV-6A; 2% FBS
  EC50: 1100 nM
GS strain of HHV-6A; 5% FBS
  EC50: 1200 nM
GS strain of HHV-6A; 10% FBS
  EC50: 1400 nM

## pUL97 K355M of recombinant virus RC314
[1]
  RB stabilization, western blot of lysates 24 hours after infection: This did not occur when cells were infected with the K355M mutant
  phosphorylation of RB on serine 780, western blot with specific antisera: The phosphorylation of serine 780 was reduced in the K355M and C151G mutants relative to the wild-type virus and resembled levels seen in uninfected cells

B1: pUL97 of the wild-type virus HB5 (HCMV BAC strain) (protein)
chain: MSSALRSRARSASLGTTTQGWDPPPLRRPSRARRRQWMREAAQAAAQAAVQAAQAAAAQVAQAHVDENEVVDLMADEAGGGVTTLTTLSSVSTTTVLGHATFSACVRSDVMRDGEKEDAASDKENLRRPVVPSTSSRGSAASGDGYHGLRCRETSAMWSFEYDRDGDVTSVRRALFTGGSDPSDSVSGVRGGRKRPLRPPLVSLARTPLCRRRVGGVDAVLEENDVELRAESQDSAVASGPGRIPQPLSGSSGEESATAVEADSTSHDDVHCTCSNDQIITTSIRGLTCDPRMFLRLTHPELCELSISYLLVYVPKEDDFCHKICYAVDMSDESYRLGQGSFGEVWPLDRYRVVKVARKHSETVLTVWMSGLIRTRAAGEQQQPPSLVGTGVHRGLLTATGCCLLHNVTVHRRFHTDMFHHDQWKLACIDSYRRAFCTLADAIKFLNHQCRVCHFDITPMNVLIDVNPHNPSEIVRAALCDYSLSEPYPDYNERCVAVFQETGTARRIPNCSHRLRECYHPAFRPMPLQKLLICDPHARFPVAGLRRYCMSELSALGNVLGFCLMRLLDRRGLDEVRMGTEALLFKHAGAACRALENGKLTHCSDACLLILAAQMSYGACLLGEHGAALVSHTLRFVEAKMSSCRVRAFRRFYHECSQTMLHEYVRKNVERLLATSDGLYLYNAFRRTTSIICEEDLDGDCRQLFPE
[2]
  RB stabilization, western blot of lysates 24 hours after infection: Cells infected with the wild-type virus stabilized RB

B2: pUL97 C151G of recombinant virus RC295 (protein)
chain: MSSALRSRARSASLGTTTQGWDPPPLRRPSRARRRQWMREAAQAAAQAAVQAAQAAAAQVAQAHVDENEVVDLMADEAGGGVTTLTTLSSVSTTTVLGHATFSACVRSDVMRDGEKEDAASDKENLRRPVVPSTSSRGSAASGDGYHGLRGRETSAMWSFEYDRDGDVTSVRRALFTGGSDPSDSVSGVRGGRKRPLRPPLVSLARTPLCRRRVGGVDAVLEENDVELRAESQDSAVASGPGRIPQPLSGSSGEESATAVEADSTSHDDVHCTCSNDQIITTSIRGLTCDPRMFLRLTHPELCELSISYLLVYVPKEDDFCHKICYAVDMSDESYRLGQGSFGEVWPLDRYRVVKVARKHSETVLTVWMSGLIRTRAAGEQQQPPSLVGTGVHRGLLTATGCCLLHNVTVHRRFHTDMFHHDQWKLACIDSYRRAFCTLADAIKFLNHQCRVCHFDITPMNVLIDVNPHNPSEIVRAALCDYSLSEPYPDYNERCVAVFQETGTARRIPNCSHRLRECYHPAFRPMPLQKLLICDPHARFPVAGLRRYCMSELSALGNVLGFCLMRLLDRRGLDEVRMGTEALLFKHAGAACRALENGKLTHCSDACLLILAAQMSYGACLLGEHGAALVSHTLRFVEAKMSSCRVRAFRRFYHECSQTMLHEYVRKNVERLLATSDGLYLYNAFRRTTSIICEEDLDGDCRQLFPE
[2]
  RB accumulation, western blot of lysates 24 hours after infection: The accumulation of RB was reduced in the C151G mutant
  phosphorylation of RB on serine 780, western blot with specific antisera: The phosphorylation of serine 780 was reduced in the K355M and C151G mutants relative to the wild-type virus and resembled levels seen in uninfected cells

B3: recombinant protein consisting of the carboxyl terminus of Rb fused to the maltose binding protein (Cell Signaling Technology) (other)
chain: DQIMMCSMYGICKVKNIDLKFKIIVTAYKDLPHAVQETFKRVLIKEEEYDSIIVFYNSVFMQRLKTNILQYASTRPPTLSPIPHIPRSPYKFPSSPLRIPGGNIYISPLKSPYKISEGLPTPTKMTPRSRILVSIGESFGTSEKFQKINQMVCNSDRVLKRSAEGSNPPKPLKKLRFDIEGSDEADGSKHLPGESKFQQKLAEMTSTRTRMQKQKMNDSMDTSNKEEK
notes: domain: carboxyl terminus; Bought fusion protein; also called recombinant Rb; recombinant Rb protein
[3]
  binding result: no binding
[4]
  binding result: no binding
